System: MS2 coat protein
Assay: apparent KD of MS2 coat protein; designed switch direction (-1 OFF switch, 1 ON switch): -1; higher = weaker reporter binding
In short: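 Designed RNA switches with common flanks were made on Illumina chips by stalled E. coli RNA polymerase. Titration with SNAP-549-labelled MS2 coat protein doubled from 0.7 or 1.5 nM up to 3 µM. Apparent KD is each design's median over clusters after curve-fitting normalised fluorescence.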

[1] = input ligand: microRNA oligo, concentration not stated
[2] = Eterna round: R95, input ligand: FMN 200 uM
[3] = Eterna round: R95, input ligand: microRNA oligo, concentration not stated
[4] = Eterna round: R95, input ligand: none

For “CUGUGCACGCUGCGGUCCUACAUGAGGAUCACCCAUGUGGUCUGGUGGCGUGGGUCACCGGACUUGGCUCGUCUUGA [salish99_S_TOV1_R5_065] (Eterna round: R97, puzzle: Sensor, turn-off variant 1)”, the “apparent KD of MS2 coat protein” value (input ligand: FMN 200 uM) was 44.8 nM and the “apparent KD of MS2 coat protein” value (input ligand: none) was 49.3 nM.

In the case of “AAUACAAGCUAUUGAUCCCACAUGAGGAUCACCCAUGUUCCUGGCCGUGAGGCUAGGUAGACAAUAGCUCGUCUUAU [Sensor-V1 #43] (Eterna round: R97, puzzle: Sensor, turn-off variant 1)”, the “apparent KD of MS2 coat protein” value (input ligand: FMN 200 uM) is reported as 27.9 nM and the “apparent KD of MS2 coat protein” value (input ligand: none) is reported as 26.4 nM.

“UAAGGACAUGAGGAUCACCCAUGUUAGGAUAUGCCGAGGGAGACCCGUGUUGACACUUGCAGAAGGAGUAUGGG [Eternabot (L1) Solution 25] (Eterna round: R97, puzzle: Exclusion 1)” was tested, and the “apparent KD of MS2 coat protein” value (input ligand: FMN 200 uM) was 70.4 nM and the “apparent KD of MS2 coat protein” value (input ligand: none) was 86.2 nM.

“CGGCGGGCAGGAUAUGGUAAUAAUUACAUGAGGAUCACCCAUGUGGAUAUAUGGGAAUAACCAGAAGGGCUUGUUG [-20.1, -20 kcal, A 30%] (Eterna round: R97, puzzle: Exclusion 5)” was tested, and the “apparent KD of MS2 coat protein” value (input ligand: FMN 200 uM) was 63.2 nM and the “apparent KD of MS2 coat protein” value (input ligand: none) was 74.4 nM.

For “GUCAGCUCGUGAGGAUAUGAACAUGAGGAUCACCCAUGUAAGAUCAAGCUGCUUCGGCAGCAAGUUCAGAAGGCACGAGCUGAU [ENG2/10-A2] (Eterna round: R96, puzzle: Exclusion NG 2)”, the “apparent KD of MS2 coat protein” value (input ligand: FMN 200 uM) was 251 nM, the “apparent KD of MS2 coat protein” value [1] was 134 nM and the “apparent KD of MS2 coat protein” value (input ligand: none) was 172 nM.

In the case of “GAGUGACAUGAGGAUCACCCAUGUGAGGAUAUCGGACGGACCAAAUUAACAAUAGAAGCGAGAAGGCACAUAAG [Exclusion 1 V11] (puzzle: Exclusion 1)”, the “apparent KD of MS2 coat protein” value [2] is reported as 72.4 nM, the “apparent KD of MS2 coat protein” value [3] is reported as 74.3 nM and the “apparent KD of MS2 coat protein” value [4] is reported as 81.3 nM.

In the case of “AGUAACAGAGGAUAUACUAUUUUAUGUGUUUGUUAUUUUAAACAUGAGGAUCACCCAUGUAGAAGGCUGAAUGA [JMF 100] (puzzle: Exclusion 2)”, the “apparent KD of MS2 coat protein” value [3] is reported as 23.5 nM.

With “ACAUGAGGAUCACCCAUGUAAUCAUGAUGGCUGAUGUAGAGGUAGGAUAUGUGUGGCUUUCUAUCACAGAAGGACCAAGACUGG [Deportation 38 - Jieux - Exclusion NG 3] (Eterna round: R96, puzzle: Exclusion NG 3)” the “apparent KD of MS2 coat protein” value (input ligand: FMN 200 uM) was 46.3 nM, the “apparent KD of MS2 coat protein” value [1] was 46.6 nM and the “apparent KD of MS2 coat protein” value (input ligand: none) was 59.8 nM.

In the case of “AAUGCAAGCAAGAUCCUAAACAUGAGGAUCACCCAUGUGCUCGUCUUAUAAAGUACUAUCACGAAAGUGAUAGUACA [Sensor 3, v1 - 64] (puzzle: Sensor v3, turn-off variant 1)”, the “apparent KD of MS2 coat protein” value [2] is reported as 515 nM, the “apparent KD of MS2 coat protein” value [3] is reported as 132 nM and the “apparent KD of MS2 coat protein” value [4] is reported as 744 nM.

With “CAGCUGAAAGUGAGGAUAUCUAGAGCGAUAGCUCUAGAGAAGGCACAUGAGGAUCACCCAUGUGAUCACAGCUG [BmEx4/7-A4] (Eterna round: R97, puzzle: Brourd's mod of Exclusion 4)” the “apparent KD of MS2 coat protein” value (input ligand: FMN 200 uM) was 1320 nM and the “apparent KD of MS2 coat protein” value (input ligand: none) was 249 nM.

With “GUUUCACAUGAGGAUCACCCAUGUGAGGAUAUGUUAUUAAUGGCGAUAGUUAUUGGUGGCAGAAGGCGCGUGAU [JR_Exc1_Sub010] (Eterna round: R97, puzzle: Exclusion 1)” the “apparent KD of MS2 coat protein” value (input ligand: FMN 200 uM) was 115 nM and the “apparent KD of MS2 coat protein” value (input ligand: none) was 50.2 nM.

In the case of “AAUUUACAUGAGGAUCACCCAUGUGAGGAUAUGAUACUAUGUACUUCGGUACAUAGUAUCAGAAGGCAUGUGGG [Ex1-3: 93] (puzzle: Exclusion 1)”, the “apparent KD of MS2 coat protein” value [3] is reported as 19.1 nM.

For “UCCGGGUUUGUAGGAUAUAGUCUGCUUUGCAGACUAGAAGGACAUGAGGAUCACCCAUGUUGUGGAAAUUUGGGAUGUUCCUUU [random2] (Eterna round: R96, puzzle: Exclusion NG 1)”, the “apparent KD of MS2 coat protein” value (input ligand: FMN 200 uM) was 176 nM, the “apparent KD of MS2 coat protein” value [1] was 27.4 nM and the “apparent KD of MS2 coat protein” value (input ligand: none) was 189 nM.

For “UUAUAUAGGUAGGAUAUCGAUUUUAAUUAAUAUCGAGAAGGGUCAACAUGAGGAUCACCCAUGUCAGCAUGUAU [LRO-Excl6-04-Rocketman] (Eterna round: R97, puzzle: Exclusion 6)”, the “apparent KD of MS2 coat protein” value (input ligand: FMN 200 uM) was 60 nM and the “apparent KD of MS2 coat protein” value (input ligand: none) was 55.1 nM.
